B1: activin A (immobilised on the SPR chip) (ligand, UniProt P08476 311-426, looked up)
chain: GLECDGKVNICCKKQFFVSFKDIGWNDWIIAPSGYHANYCEGECPSHIAGTSGSSLSFHSTVINHYRMRGHSPFANLKSCCVPTKLRPMSMLYYDDGQNIIKKDIQNMIVEECGCS
B2: BMP2 (ligand, UniProt P12643 283-396, looked up)
chain: QAKHKQRKRLKSSCKRHPLYVDFSDVGWNDWIVAPPGYHAFYCHGECPFPLADHLNSTNHAIVQTLVNSVNSKIPKACCVPTELSAISMLYLDENEKVVLKNYQDMVVEGCGCR
notes: BMP2, bought from Peprotech; source: bought: Peprotech

What was measured:
ACVR2B-ECD (used in SPR) = target: T1, ACVR2B-ECD (used in SPR) (UniProt Q13705 19-137); assay: SPR; activin A, TGF-β3 or BMP2 immobilised on a CM4 chip (EDC-NHS, up to 400 RU); antibodies or control binders flowed over; BIAcore T200; 10 mM CHES, 150 mM NaCl, 3 mM EDTA, 0.01% P20, pH 8.0; 1:1 kinetic model; conditions: both partners purified
T1 construct: also called ACVR2B extracellular domain (ECD)
T1 sequence (looked up): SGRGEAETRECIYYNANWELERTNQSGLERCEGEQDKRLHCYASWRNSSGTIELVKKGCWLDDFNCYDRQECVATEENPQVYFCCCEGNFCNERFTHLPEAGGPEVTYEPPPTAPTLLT

Noggin = target: T2, Noggin (UniProt Q13253 28-232); assay: as above; conditions: both partners purified
T2 construct: Noggin, bought from Peprotech; source: bought: Peprotech
T2 sequence (looked up): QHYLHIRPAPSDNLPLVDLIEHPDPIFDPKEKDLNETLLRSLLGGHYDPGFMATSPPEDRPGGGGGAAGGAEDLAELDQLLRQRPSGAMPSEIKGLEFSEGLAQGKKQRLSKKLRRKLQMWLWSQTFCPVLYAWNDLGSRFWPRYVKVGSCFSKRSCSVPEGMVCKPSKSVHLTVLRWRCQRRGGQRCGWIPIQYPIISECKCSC

| Binder | Kd (ACVR2B-ECD (used in SPR)) | Kd (Noggin) |
| --- | --- | --- |
| B1 | 114 nM |  |
| B2 |  | 1.26 nM |
